Measured values as given in publication doi:10.1101/108647.
Where two headings read alike, the source gives them in different places.

How the values were obtained:
[1] = molecular target: T1, Mlh1 (untagged);HisFlag-Mlh3 (Saccharomyces cerevisiae (S288c, …, UniProt P38920;Q12083 1-769;1-715, |)); assay: FeBABE footprinting
T1 sequence 1: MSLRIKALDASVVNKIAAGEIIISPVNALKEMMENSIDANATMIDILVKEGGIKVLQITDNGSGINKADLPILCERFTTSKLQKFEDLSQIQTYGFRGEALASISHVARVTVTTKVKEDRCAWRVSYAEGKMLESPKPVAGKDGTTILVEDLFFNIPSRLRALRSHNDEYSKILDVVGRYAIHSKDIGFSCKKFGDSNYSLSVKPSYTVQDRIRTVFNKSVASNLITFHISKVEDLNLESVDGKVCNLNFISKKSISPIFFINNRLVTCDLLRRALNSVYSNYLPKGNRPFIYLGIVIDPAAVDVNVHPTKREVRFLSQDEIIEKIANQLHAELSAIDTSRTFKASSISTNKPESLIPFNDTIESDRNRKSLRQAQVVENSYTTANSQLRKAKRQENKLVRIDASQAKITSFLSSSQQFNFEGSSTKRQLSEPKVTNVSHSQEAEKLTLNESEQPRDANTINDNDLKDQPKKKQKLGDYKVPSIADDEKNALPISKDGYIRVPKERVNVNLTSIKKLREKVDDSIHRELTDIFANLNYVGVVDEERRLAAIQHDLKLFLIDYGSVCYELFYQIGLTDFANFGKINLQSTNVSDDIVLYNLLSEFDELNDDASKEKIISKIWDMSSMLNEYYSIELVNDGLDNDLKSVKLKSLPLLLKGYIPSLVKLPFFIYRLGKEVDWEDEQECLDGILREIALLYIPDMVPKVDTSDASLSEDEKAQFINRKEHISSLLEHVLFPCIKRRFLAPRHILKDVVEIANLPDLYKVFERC
T1 sequence 2: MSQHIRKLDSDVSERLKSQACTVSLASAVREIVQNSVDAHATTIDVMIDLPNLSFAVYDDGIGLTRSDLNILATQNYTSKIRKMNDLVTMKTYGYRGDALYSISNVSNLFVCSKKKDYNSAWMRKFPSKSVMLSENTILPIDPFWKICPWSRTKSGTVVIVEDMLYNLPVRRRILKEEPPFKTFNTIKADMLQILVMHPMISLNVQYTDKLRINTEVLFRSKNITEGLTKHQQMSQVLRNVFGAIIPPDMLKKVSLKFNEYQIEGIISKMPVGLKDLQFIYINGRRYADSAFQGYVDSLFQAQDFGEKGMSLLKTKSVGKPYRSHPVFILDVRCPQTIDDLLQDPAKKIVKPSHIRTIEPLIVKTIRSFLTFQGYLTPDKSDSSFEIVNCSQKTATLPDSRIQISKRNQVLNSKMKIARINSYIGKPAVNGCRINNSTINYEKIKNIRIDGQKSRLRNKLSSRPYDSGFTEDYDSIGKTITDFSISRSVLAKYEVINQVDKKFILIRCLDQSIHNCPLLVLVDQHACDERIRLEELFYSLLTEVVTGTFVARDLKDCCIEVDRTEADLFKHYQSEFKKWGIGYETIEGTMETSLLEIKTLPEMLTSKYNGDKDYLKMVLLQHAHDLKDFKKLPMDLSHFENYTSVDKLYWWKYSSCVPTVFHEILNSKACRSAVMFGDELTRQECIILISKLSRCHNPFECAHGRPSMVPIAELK

[2] = molecular target: T2, HisFlag-Mlh1 (MutLγ subunit);Mlh3 (MutLγ subunit) (Saccharomyces cerevisiae (S288c, …, UniProt P38920;Q12083 1-769;1-715, |)); assay: FeBABE footprinting
T2 sequence 1: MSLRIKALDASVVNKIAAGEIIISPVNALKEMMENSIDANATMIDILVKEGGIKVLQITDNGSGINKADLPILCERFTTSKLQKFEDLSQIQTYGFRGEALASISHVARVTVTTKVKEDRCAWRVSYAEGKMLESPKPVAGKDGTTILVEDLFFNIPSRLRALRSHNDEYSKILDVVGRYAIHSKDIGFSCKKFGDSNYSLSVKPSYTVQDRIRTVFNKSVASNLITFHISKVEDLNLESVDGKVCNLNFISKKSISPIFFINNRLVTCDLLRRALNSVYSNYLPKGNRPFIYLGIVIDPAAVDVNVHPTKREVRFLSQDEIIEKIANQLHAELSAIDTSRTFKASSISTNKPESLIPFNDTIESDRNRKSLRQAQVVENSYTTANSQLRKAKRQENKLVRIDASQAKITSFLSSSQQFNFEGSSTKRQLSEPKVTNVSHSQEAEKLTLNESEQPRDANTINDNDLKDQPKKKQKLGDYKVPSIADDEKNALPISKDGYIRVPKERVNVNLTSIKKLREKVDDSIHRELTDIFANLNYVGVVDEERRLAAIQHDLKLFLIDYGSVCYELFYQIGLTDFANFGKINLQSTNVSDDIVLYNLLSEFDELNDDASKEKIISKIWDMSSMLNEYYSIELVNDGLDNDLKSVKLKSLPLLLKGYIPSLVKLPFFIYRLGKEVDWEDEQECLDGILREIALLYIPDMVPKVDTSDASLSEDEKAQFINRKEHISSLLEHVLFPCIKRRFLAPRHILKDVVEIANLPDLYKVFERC
T2 sequence 2: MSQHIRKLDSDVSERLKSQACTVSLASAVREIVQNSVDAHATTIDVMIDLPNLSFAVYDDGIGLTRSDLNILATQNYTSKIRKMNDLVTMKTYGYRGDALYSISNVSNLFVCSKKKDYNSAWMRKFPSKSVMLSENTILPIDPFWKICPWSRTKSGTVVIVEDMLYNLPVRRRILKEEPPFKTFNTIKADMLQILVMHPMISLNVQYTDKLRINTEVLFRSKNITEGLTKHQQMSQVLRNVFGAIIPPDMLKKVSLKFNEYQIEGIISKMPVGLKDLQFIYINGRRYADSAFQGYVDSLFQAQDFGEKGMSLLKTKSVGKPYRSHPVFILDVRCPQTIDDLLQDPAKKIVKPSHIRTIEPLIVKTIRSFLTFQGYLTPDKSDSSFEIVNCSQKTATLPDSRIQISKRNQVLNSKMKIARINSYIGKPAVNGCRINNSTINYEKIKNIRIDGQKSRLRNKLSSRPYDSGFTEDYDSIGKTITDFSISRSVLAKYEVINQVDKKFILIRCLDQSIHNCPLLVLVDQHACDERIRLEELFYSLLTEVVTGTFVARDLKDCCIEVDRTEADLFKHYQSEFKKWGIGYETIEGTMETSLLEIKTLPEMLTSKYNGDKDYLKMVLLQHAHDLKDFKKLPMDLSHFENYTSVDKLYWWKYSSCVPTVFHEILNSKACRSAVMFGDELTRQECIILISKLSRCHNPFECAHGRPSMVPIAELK

[3] = molecular target: T2, HisFlag-Mlh1 (MutLγ subunit);Mlh3 …; assay: pull-down
[4] = molecular target: T1, Mlh1 (untagged);HisFlag-Mlh3; assay: FeBABE footprinting; remark: listed apart in the source
[5] = molecular target: T2, HisFlag-Mlh1 (MutLγ subunit);Mlh3 …; assay: FeBABE footprinting; remark: listed apart in the source

B1: ssDNA+ FeBABE (cb361) (ssDNA)
DNA: TTTTTTTTTTTTTTTTTTTTTTTTTTTTTTTTTTTTTTTTTTTTTTTTTTTTTTTTTTTTTTTTTTTTTTTTTTTTTTTT
modifications: phosphorothioate-FeBABE after every 8 nt; 3'-biotin
binding result [1]: binds
binding result [2]: binds

B2: ssDNA80-biotin (cb316) (ssDNA)
DNA: TTTTTTTTTTTTTTTTTTTTTTTTTTTTTTTTTTTTTTTTTTTTTTTTTTTTTTTTTTTTTTTTTTTTTTTTTTTTTTTT
modifications: 3'-biotin
binding result [3]: binds

B3: HJ+1 FeBABE (cb256/351/369/098) (structured_DNA)
DNA 1: CTAGTATAGAGCCGGCGCGCCATGTCTAGATAGCGTTAGGTCTGCCGAATAGTACTACTCGGATCCCGAGCGAACCACGC
DNA 2: GCGTGGTTCGCTCGGGATCCGAGTAGTACTATTCGGCAGAGGATTCGAATAGGCCTAATCGAATTCCGCCATCGATGCAC
DNA 3: GTGCATCGATGGCGGAATTCGATTAGGCCTATTCGAATCCAGACGCGAGTAGATCTTCACGGTACCCGCGGTTACCCGTG
DNA 4: CACGGGTAACCGCGGGTACCGTGAAGATCTACTCGCGTCTCCTAACGCTATCTAGACATGGCGCGCCGGCTCTATACTAG
modifications: phosphorothioate-FeBABE on strands 2 and 3, segment 1 (nearest the center); 3'-biotin on strand 1
binding result [4]: binds
binding result [5]: binds

B4: dsDNA80-biotin (cb256/cb100) (dsDNA)
DNA 1: CTAGTATAGAGCCGGCGCGCCATGTCTAGATAGCGTTAGGTCTGCCGAATAGTACTACTCGGATCCCGAGCGAACCACGC
DNA 2: GCGTGGTTCGCTCGGGATCCGAGTAGTACTATTCGGCAGACCTAACGCTATCTAGACATGGCGCGCCGGCTCTATACTAG
modifications: 3'-biotin on strand 1
binding result [3]: no binding

B5: HJ80-biotin (cb256/096/097/098) (structured_DNA)
DNA 1: CTAGTATAGAGCCGGCGCGCCATGTCTAGATAGCGTTAGGTCTGCCGAATAGTACTACTCGGATCCCGAGCGAACCACGC
DNA 2: GCGTGGTTCGCTCGGGATCCGAGTAGTACTATTCGGCAGAGGATTCGAATAGGCCTAATCGAATTCCGCCATCGATGCAC
DNA 3: GTGCATCGATGGCGGAATTCGATTAGGCCTATTCGAATCCAGACGCGAGTAGATCTTCACGGTACCCGCGGTTACCCGTG
DNA 4: CACGGGTAACCGCGGGTACCGTGAAGATCTACTCGCGTCTCCTAACGCTATCTAGACATGGCGCGCCGGCTCTATACTAG
modifications: 3'-biotin on strand 1
binding result [3]: binds
